{"source": "paper PMC5418834", "about": "“Structural analysis of X-linked retinoschisis mutations reveals distinct classes which differentially effect retinoschisin function” (Human Molecular Genetics, 2016)", "molecules": {"B1": {"name": "R141H human retinoschisin (natural protein, UniProt O15537 24-224, looked up)", "chain": "STEDEGEDPWYQKACKCDCQGGPNALWSAGATSLDCIPECPYHKPLGFESGEVTPDQITCSNPEQYVGWYSSWTANKARLNSQGFGCAWLSKFQDSSQWLQIDLKEIKVISGILTQGHCDIDEWMTKYSVQYRTDERLNWIYYKDQTGNNRVFYGNSDRTSTVQNLLRPPIISRFIRLIPLGWHVRIAIRMELLECVSKCA", "notes": "retinoschisin, human, product of the RS1 gene, with the XLRS-associated mutation R141H; Disease-causing (XLRS) mutation that occurs in patients; Same construct as m1 apart from the mutation; also called R141H retinoschisin; R141H mutant"}, "B2": {"name": "H207Q human retinoschisin (natural protein, UniProt O15537 24-224, looked up)", "chain": "STEDEGEDPWYQKACKCDCQGGPNALWSAGATSLDCIPECPYHKPLGFESGEVTPDQITCSNPEQYVGWYSSWTANKARLNSQGFGCAWLSKFQDSSQWLQIDLKEIKVISGILTQGRCDIDEWMTKYSVQYRTDERLNWIYYKDQTGNNRVFYGNSDRTSTVQNLLRPPIISRFIRLIPLGWQVRIAIRMELLECVSKCA", "notes": "retinoschisin, human, product of the RS1 gene, with the XLRS-associated mutation H207Q; Disease-causing (XLRS) mutation that occurs in patients; Same construct as m1 apart from the mutation; also called H207Q retinoschisin; H207Q mutant"}}, "key": {"[1]": {"target": "wild-type human retinoschisin (human) (UniProt O15537)", "experiment": "SEC-MALS; octamer fraction; 10 mM Tris pH 7.4, 150 mM NaCl"}, "[2]": {"target": "wild-type human retinoschisin (human) (UniProt O15537)", "experiment": "AUC; sedimentation velocity of the octamer fraction, ~0.1 mg/ml, 10 mM Tris pH 7.4, 150 mM NaCl, 20°C, 45,000 rpm"}, "[3]": {"target": "wild-type human retinoschisin (human) (UniProt O15537)", "experiment": "negative-stain EM; 20 µg/ml octamer on carbon coated grids, uranyl acetate, reference-free class averages"}, "[4]": {"target": "wild-type human retinoschisin (human) (UniProt O15537)", "experiment": "native gel or EMSA; blue-native PAGE and native blot of purified retinoschisin (H207Q at ~0.1 mg/ml)"}, "[5]": {"target": "wild-type human retinoschisin (human) (UniProt O15537)", "experiment": "cryo-EM structure; 0.1 mg/ml of octamer vitrified on C-Flat R2/2 grids; C8 (wild type) or D8 (R141H) symmetry"}, "[6]": {"target": "the molecule itself", "experiment": "native gel or EMSA; blue-native PAGE and native blot of purified retinoschisin (H207Q at ~0.1 mg/ml)"}, "[7]": {"target": "the molecule itself", "experiment": "SEC-MALS; octamer fraction; 10 mM Tris pH 7.4, 150 mM NaCl"}, "[8]": {"target": "the molecule itself", "experiment": "negative-stain EM; 20 µg/ml octamer on carbon coated grids, uranyl acetate, reference-free class averages"}}, "note": "Where “and” joins values, the source holds several entries; their conditions need not be identical. Equal values may be shown once."}
{"molecule": "wild-type human retinoschisin (from UniProt O15537 24-224) (natural protein)", "values": [{"measurement": "stoichiometry N", "setting": "[1]", "result": 8}, {"measurement": "stoichiometry N", "setting": "[2]", "result": 8}, {"measurement": "stoichiometry N", "setting": "[3]", "result": 8}, {"measurement": "stoichiometry N", "setting": "[4]", "result": "8 and 16"}, {"measurement": "stoichiometry N", "setting": "[5]", "result": "8 and 16"}]}
{"molecule": "B1", "values": [{"measurement": "stoichiometry N", "setting": "[6]", "result": 16}, {"measurement": "stoichiometry N", "setting": "[7]", "result": 8}]}
{"molecule": "B2", "values": [{"measurement": "stoichiometry N", "setting": "[8]", "result": 8}, {"measurement": "stoichiometry N", "setting": "[6]", "result": 16}]}
